Measured values: patent US6531296 (UNIVERSITY OF NORTH CAROLINA AT CHAPEL HILL, dated 2003)

Target: T1, Src protein (p60^src), in vitro translated (UniProt P12931 2-536, limits assumed)
T1 construct: also called c-Src
Assay: in vitro translated Src on Rb-GST fusion proteins; data not shown
Procedure: The same procedure was followed for Rb in vitro binding assays, except that the Rb-GST fusion proteins were incubated in the in vitro translated forms of Rak in NP-40 buffer containing 0.5% fraction V bovine serum albumin (Boehringer Mannheim). After three washes with the same buffer, bound proteins were analyzed by SDS-PAGE and detected by autoradiography. Rak was in vitro translated using the TnT-coupled transcription/translation system (Promega) with 2 ug of the pAlt-Rak plasmid. The Rak (1–152) construct was prepared by digesting the pAlt-Rak plasmid with EcoRI to obtain the 5' EcoRI fragment of Rak.
An in vitro binding reaction was then used to further identify the essential components for the Rak-Rb interaction. In vitro translated Rak was incubated with two Rb-GST fusion proteins, where one encoded amino acids 379–928, spanning the A/B pocket and carboxy-terminus (RbABC), while the other fusion protein encoded amino acids 780–928, and represented only the carboxy-terminus (RbC). The in vitro translated full-length Rak protein bound efficiently to the RbABC fusion protein, and approximately 5-fold less to the RbC protein (FIG. 5B, upper panel). […] As a control, the Src protein was in vitro translated and subjected to the same binding reaction, and no binding of Src to any portion of Rb was detected (data not shown).

binding result	Binder
no binding	GST-RbC, Rb fusion protein encoding amino acids 780-928 (COOH-terminal domain only) (other, UniProt P06400 780-928, looked up, range 780-928; GST fusion prepared like the Rak fusions; also called RbC protein; Rb-GST fusion protein; not shown: Glutathione S-transferase encoded by the pGEX-4T plasmid (Pharmacia)) SPIPHIPRSPYKFPSSPLRIPGGNIYISPLKSPYKISEGLPTPTKMTPRSRILVSIGESFGTSEKFQKINQMVCNSDRVLKRSAEGSNPPKPLKKLRFDIEGSDEADGSKHLPGESKFQQKLAEMTSTRTRMQKQKMNDSMDTSNKEEK
no binding	GST-RbABC, Rb fusion protein encoding amino acids 379-928 (A/B pocket region and COOH-terminal domain) (other, UniProt P06400 379-928, looked up, range 379-928; GST fusion prepared like the Rak fusions; also called RbABC fusion protein; Rb-GST fusion protein; not shown: Glutathione S-transferase encoded by the pGEX-4T plasmid (Pharmacia)) MNTIQQLMMILNSASDQPSENLISYFNNCTVNPKESILKRVKDIGYIFKEKFAKAVGQGCVEIGSQRYKLGVRLYYRVMESMLKSEEERLSIQNFSKLLNDNIFHMSLLACALEVVMATYSRSTSQNLDSGTDLSFPWILNVLNLKAFDFYKVIESFIKAEGNLTREMIKHLERCEHRIMESLAWLSDSPLFDLIKQSKDREGPTDHLESACPLNLPLQNNHTAADMYLSPVRSPKKKGSTTRVNSTANAETQATSAFQTQKPLKSTSLSLFYKKVYRLAYLRLNTLCERLLSEHPELEHIIWTLFQHTLQNEYELMRDRHLDQIMMCSMYGICKVKNIDLKFKIIVTAYKDLPHAVQETFKRVLIKEEEYDSIIVFYNSVFMQRLKTNILQYASTRPPTLSPIPHIPRSPYKFPSSPLRIPGGNIYISPLKSPYKISEGLPTPTKMTPRSRILVSIGESFGTSEKFQKINQMVCNSDRVLKRSAEGSNPPKPLKKLRFDIEGSDEADGSKHLPGESKFQQKLAEMTSTRTRMQKQKMNDSMDTSNKEEK
